Assay results taken from the RNAGym collection of RNA variant scans (doi:10.1073/pnas.2313332121).

B1: TPR t1 (parent)
chain: GACCAAUCUGCCCUCAGAGCUCGAGAACAUCUUCGGAUGCAGAGGAGGCAGGCUUCGGUGGCGCGAUAGCGCCAACGUCCUCAACCUCCAAUGCAUCCCACCACAUGAUGAUGCCUGAAGAGCCUUGGUUUUUUG

Variants of: B1
Test: polymerase ribozyme fitness, log enrichment relative to wild type (log ratio); higher = more active; in vitro selection for triplet polymerase activity
Procedure, shortened: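 Each subunit of a heterodimeric triplet polymerase ribozyme was mutagenized into a library by PCR, transcribed, and subjected to one round of in vitro selection, run in triplicate. Libraries were annealed with a biotinylated primer, the partner subunit and triplets, incubated frozen at −7 °C, and extended constructs were gel-excised, captured on streptavidin beads and recovered by RT-PCR. Input and output libraries were sequenced on Illumina, keeping genotypes with ≥10 input reads and ≥1 read per output. Fitness is log base 2 of genotype enrichment divided by wild-type enrichment, from inverse-variance-weighted replicate averages.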

Row | Variant | polymerase ribozyme fitness (log ratio)
1 | A37U U78C U87C | 0.269
2 | A37C G52C G117A | -2.76
3 | A37U A46U G47A C123G | -1.6
4 | A37U C56G C85U | -1.26
5 | G36U G60C A84C | -1.87
6 | A37U U125G | -1.07
7 | A37G C88G | -2.83
8 | G36U G44A G71U | -3.19
9 | A37U G47U U54C U78G C85U A119U | -3.1
10 | A37U G44A G113C U130A | -3.29
11 | G36U C88G A91U | -6.86
12 | G36U G45A A119U | -1.61
13 | G36U G107C | -5.19
14 | A37C C70A | -1.82
15 | A37G A43U G52A G57U C98U | -5.9
16 | A37U G71U | -0.54
17 | G36U G122A U131A | -1.83
18 | U38A A50U C73G A121U | -0.841
19 | A37C G52A G69U C114G C123U | -2.89
20 | A37U C101A G120A | -0.798
21 | G36U C56U C97A | -0.495
22 | A37U C123U | 0.6
23 | G36U G60C | -1.25
24 | G36U C49U A95U | -3.5

Row | Variant | polymerase ribozyme fitness (log ratio)
25 | A37U A66C A75U G120C | -1.07
26 | A37U A74C C88G G110A | -3.27
27 | G36U G52C U78G A95G | -2.15
28 | G36U G110U G120A | -2.35
29 | U38A C49G U55G | -2.77
30 | A37U C72U | -1.56
31 | A37G G39A C86G | -3.13
32 | G36U G42U C56G C70U U112C C124U | -2.29
33 | A37C G69A | -3.26
34 | A37C G45U G61C C123A | -3.45
35 | A37U G63C G69U C97U C99U G110U | -5.81
36 | U38A C101G G120C | -2.43
37 | G36U G60C G69U A100U | -4.04
38 | U38A C49U G110U | -4.28
39 | A37C G120A | 1.02
40 | G36U G61A U78A | -0.679
41 | U38A C64U U132A | -0.788
42 | G36U G44C C70U | -2.13
43 | G36U C72U U96G G120C | -0.581
44 | G36U G44A U112A | -0.0288
45 | A37C G65C A121U | -5.06
46 | G36U C82A G113U | -3.08
47 | G36U U59C C86U | -1.77
48 | A37G U87C A95G A100U U130A | -3.04

Row | Variant | polymerase ribozyme fitness (log ratio)
49 | A37C G69U U96G U129A | -0.113
50 | A37U C114A C124U | -1.39
51 | G36U A121C U125A G127U G128C | -0.954
52 | G36U G120A U126A U132A | -0.708
53 | G36U C79U | -1.62
54 | G36U C79A | -3.02
55 | A37G A95C | -1.66
56 | A37G A46G A83C | -2.03
57 | A37C C56G G58A G63C G77C | -3.59
58 | A37U G48U G57U U129C | -1.96
59 | A37C C115U U130A U132G | -1.99
60 | G36U G127A | -2.27
61 | A37G C49G A111U U126G | -6.22
62 | G36U G39C C124G | -0.0867
63 | A37U A74U | -0.149
64 | G36U G69U A75U | -0.726
65 | G36U C64U C123G | 0.799
66 | A37G G60C G117A | -1.95
67 | A37U U106G C123G | 0.0565
68 | A37G C73A U96A | -3.88
69 | A37U C88U | -0.319
70 | G36U U55C G93A | -2.49
71 | G36U U106A | -1.6
72 | A37U G57A U109G | -5.89

Row | Variant | polymerase ribozyme fitness (log ratio)
73 | A37U A41C C64A U109A G128U | -5.77
74 | G36U G61C U126C | -4.78
75 | A37C G60A C76G | -2.7
76 | G36U C53U G63A C123G | -0.478
77 | G36U C70G | -4.21
78 | A37U A43U C73A U96C A111C U112A | -4.83
79 | A37G A118U | 0.234
80 | A37G A50C G57A G117C | -6.92
81 | A37G C64U C88U A121U | -0.585
82 | G36U C70G C101A G120A | -3.68
83 | A37U A41U A50C C115U | -4.64
84 | G36U C53U G61A A118G | -1.48
85 | U38A C40A G93U | -0.915
86 | A37U C86G C88U C104U U106A G113A C124G G127A | -4.82
87 | A37C G39A G61A U112A U116G U133A | -3.64
88 | G36U C80A U81A A121U U130C | -0.239
89 | A37U C73G U130G | -1.38
90 | G36U A118G G128A | -3.98
91 | G36U U96A C97A G127A | -2.83
92 | G36U G45C C89U U132A | -2.62
93 | G36U C49U | -2.72
94 | A37C G63A | -0.905
95 | A37G U59G | 0.0397
96 | A37G C64U | -0.479

Row | Variant | polymerase ribozyme fitness (log ratio)
97 | A37G G60U C72G C99A A103G C114U U129C | -7.36
98 | A37G G45C C89U A95G | -5.88
99 | A37U U54A G61C U109C | -7.14
100 | G36U G69A | -4.06
101 | A37U G60A | -0.626
102 | G36U U55G A83U G110A U130G | -5.37
103 | A37C G122U | -0.263
104 | U38A C73U | -2.86
105 | A37C C70A C72U G120U | -1.56
106 | A37C A50C | -0.281
107 | A37U G110C A121U | -3.77
108 | A37G G71U | -1.09
109 | A37C G61U C73U | -1.35
110 | A37C G61U C104U U112C | 1.04
111 | A37U C40U U87C G135U | -1.29
112 | A37U A46U G47A U130G U131G | -3.56
113 | A37C C79A C94U | -2.07
114 | G36U G39U C70U A111G | -4.55
115 | A37G C56G U96C | -0.381
116 | G36U U106G G120A | -1.89
117 | A37G G57C G58U G120U | -0.432
118 | G36U C72A C85A U92A U112A U129A | -5.86
119 | G36U A84C C85G C86U | -2.86
120 | A37C G93A | -0.971

Row | Variant | polymerase ribozyme fitness (log ratio)
121 | A37G G60A | -1.03
122 | A37G G42A G61A | -1.68
123 | G36U A103U C114U | -5.26
124 | A37C C62G A83U C88U | -2.61
125 | G36U G48A C70U C82U U133G | -1.79
126 | G36U C40G | -2.33
127 | U38A C102A | -4.22
128 | U38A C102U | -4.16
129 | G36U C53A C89G | -2.84
130 | A37G A83C U125A | -0.963
131 | A37U C98A | -5.84
132 | G36U U81C G107C | -5.8
133 | A37C G60A C102A | -3.1
134 | A37U G127U | -1.42
135 | G36U C76A C98G U109C C114G | -6.07
136 | A37U C70U | -1.07
137 | A37U C72A C98A C123G | -5.43
138 | A37C G45A G113U | -4.52
139 | A37U U54A A84U | -0.554
140 | G36U G52U | -2.2
141 | G36U C64U C115G G117U U132A | -6.32
142 | A37C C76G G117C A121C | -5.98
143 | G36U A68G | -3.62
144 | A37U G51C C79G A118G | -3.37

Row | Variant | polymerase ribozyme fitness (log ratio)
145 | A37C C76G | -0.251
146 | A37G G69U A100U C114G | -1.72
147 | A37C G48C | -1.64
148 | A37U G45A C72G | -1.92
149 | U38A C72G C86U G135U | -3.57
150 | A37C G63C A74C | -3.35
151 | A37G A50U C94U C104U G117C | -5.89
152 | A37G C62A G93U A121G | -3.43
153 | A37U G71U G122A | -1.17
154 | A37C G52U C80A | -4.05
155 | A37C A95U | -0.484
156 | A37G C89A | -2.41
157 | A37U G63U A105C | -5.31
158 | A37U U92C | -1.28
159 | A37C G45U C123A | -0.836
160 | G36U U87C C115U A119G U131C | 1.61
161 | G36U G39C G69A C82A G120U | -5.69
162 | A37U C56G C114A | -1.64
163 | A37C C40U C53U G63U C123G U133C | -0.381
164 | U38A A50U C62U C123G U133A | -1.2
165 | A37U G44A U87G A119U G128C | -3.53
166 | A37G C72A A84G | -1.24
167 | A37U G42C | -1.65
